Molecular target: T1, CD3 epsilon homodimer protein (UniProt P07766 23-126)
T1 construct: immobilized on Sensor chip CM4 by amine coupling; also called CD3 (CD3 epsilon)
Experiment: SPR (Biacore T200), CD3 epsilon homodimer on CM4 chip, one-arm antibody as analyte, 25 C;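 also: homodimer attached to the sensor surface via amine coupling, HBS-EP+ used as running buffer during binding runs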
Description: An appropriate amount of CD3 epsilon homodimer protein was immobilized onto Sensor chip CM4 (GE Healthcare Japan Corp.) by the amine coupling method. Then, the antibody having an appropriate concentration was injected thereto as an analyte and allowed to interact with the CD3 epsilon homodimer protein on the sensor chip. Then, the sensor chip was regenerated by the injection of 10 mmol/L glycine-HCl (pH 1.5). The assay was conducted at 25 degrees C., and HBS-EP+(GE Healthcare Japan Corp.) was used as a running buffer. […] Each parameter was calculated using Biacore T200 Evaluation Software (GE Healthcare Japan Corp.).

T1 sequence (P07766 23-126): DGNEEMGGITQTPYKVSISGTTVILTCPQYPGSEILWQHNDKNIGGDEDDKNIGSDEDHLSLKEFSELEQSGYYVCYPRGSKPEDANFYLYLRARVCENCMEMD

B1: CE115HA000 A56N one-arm antibody (antibody, human IgG1, kappa, L234A L235A, N297A, name in Kabat numbering)
heavy: QVQLVESGGGVVQPGRSLRLSCAASGFTFSNAWMHWVRQAPGKGLEWVAQIKAKSNNYNTYYAESVKGRFTISRDDSKNSLYLQMNSLKTEDTAVYYCRYVHYGAYYGVDAWGQGTTVTVSSASTKGPSVFPLAPSSKSTSGGTAALGCLVKDYFPEPVTVSWNSGALTSGVHTFPAVLQSSGLYSLSSVVTVPSSSLGTQTYICNVNHKPSNTKVDKKVEPKSCDKTHTCPPCPAPEAAGGPSVFLFPPKPKDTLMISRTPEVTCVVVDVSHEDPEVKFNWYVDGVEVHNAKTKPREEQYASTYRVVSVLTVLHQDWLNGKEYKCKVSNKALPAPIEKTISKAKGQPREPQVYTLPPSRCELTKNQVSLSCAVKGFYPSDIAVEWESNGQPENNYKTTPPVLDSDGSFFLVSKLTVDKSRWQQGNVFSCSVMHEALHNHYTQKSLSLSPDYKDDDDK
chain: EPKSSDKTHTCPPCPAPELLGGPSVFLFPPKPKDTLMISRTPEVTCVVVDVSHEDPEVKFNWYVDGVEVHNAKTKPREEQYNSTYRVVSVLTVLHQDWLNGKEYKCKVSNKALPAPIEKTISKAKGQPREPQVCTLPPSRDELTKNQVSLWCLVKGFYPSDIAVEWESNGQPENNYKTTPPVLDSDGSFFLYSKLTVDKSRWQQGNVFSCSVMHEALHNRYTQKSLSLSP
light: DIVMTQSPLSLPVTPGEPASISCRSSQSLVHSNRNTYLHWYQQKPGQAPRLLIYKVSNRFSGVPDRFSGSGSGTDFTLKISRVEAEDVGVYYCGQGTQVPYTFGQGTKLEIKRTVAAPSVFIFPPSDEQLKSGTASVVCLLNNFYPREAKVQWKVDNALQSGNSQESVTEQDSKDSTYSLSSTLTLSKADYEKHKVYACEVTHQGLSSPVTKSFNRGEC
  ratio of amounts bound (altered form / CE115HA000): 0.87

B2: CE115HA000 A56Q one-arm antibody (antibody, human IgG1, kappa, L234A L235A, N297A, name in Kabat numbering)
heavy: QVQLVESGGGVVQPGRSLRLSCAASGFTFSNAWMHWVRQAPGKGLEWVAQIKAKSNNYQTYYAESVKGRFTISRDDSKNSLYLQMNSLKTEDTAVYYCRYVHYGAYYGVDAWGQGTTVTVSSASTKGPSVFPLAPSSKSTSGGTAALGCLVKDYFPEPVTVSWNSGALTSGVHTFPAVLQSSGLYSLSSVVTVPSSSLGTQTYICNVNHKPSNTKVDKKVEPKSCDKTHTCPPCPAPEAAGGPSVFLFPPKPKDTLMISRTPEVTCVVVDVSHEDPEVKFNWYVDGVEVHNAKTKPREEQYASTYRVVSVLTVLHQDWLNGKEYKCKVSNKALPAPIEKTISKAKGQPREPQVYTLPPSRCELTKNQVSLSCAVKGFYPSDIAVEWESNGQPENNYKTTPPVLDSDGSFFLVSKLTVDKSRWQQGNVFSCSVMHEALHNHYTQKSLSLSPDYKDDDDK
chain: EPKSSDKTHTCPPCPAPELLGGPSVFLFPPKPKDTLMISRTPEVTCVVVDVSHEDPEVKFNWYVDGVEVHNAKTKPREEQYNSTYRVVSVLTVLHQDWLNGKEYKCKVSNKALPAPIEKTISKAKGQPREPQVCTLPPSRDELTKNQVSLWCLVKGFYPSDIAVEWESNGQPENNYKTTPPVLDSDGSFFLYSKLTVDKSRWQQGNVFSCSVMHEALHNRYTQKSLSLSP
light: DIVMTQSPLSLPVTPGEPASISCRSSQSLVHSNRNTYLHWYQQKPGQAPRLLIYKVSNRFSGVPDRFSGSGSGTDFTLKISRVEAEDVGVYYCGQGTQVPYTFGQGTKLEIKRTVAAPSVFIFPPSDEQLKSGTASVVCLLNNFYPREAKVQWKVDNALQSGNSQESVTEQDSKDSTYSLSSTLTLSKADYEKHKVYACEVTHQGLSSPVTKSFNRGEC
  ratio of amounts bound (altered form / CE115HA000): 0.76

From patent US20210388087A1 (Chugai, published 2021)
